Values joined by “and” are separate entries in the source; they are usually repeats but may differ in a detail not shown here. Identical values can stand only once.
What was measured:
TNF-α [1] = target: T1, TNF-α (UniProt P01375 77-233, biotinylated (sites not given)); test: Octet BLI, biotinylated TNF-α on streptavidin tips, A6+Fc at 370 nM
T1 construct: Bought protein; also called biotintylated TNF-α soluble protein
Procedure: (§1) The target protein was biotintylated TNF-α soluble protein (R&D Systems) and is at a concentration of 0.25 ug/ml for loading onto the streptavidin sensor tips. […] The Octet was run using the manufacturers protocol for Basic Kinetic Assay.

TNF-α [2] = target: T1, TNF-α; test: Octet BLI, biotinylated TNF-α on streptavidin tips, A6 at 290 nM
Procedure: as §1

HMGB1 = target: T2, HMGB1 (UniProt P09429 1-215, limits assumed, biotinylated in the RAGE assay (sites not given)); test: Octet BLI
T2 construct: also called biotinylated HMGB1
T2 sequence (looked up): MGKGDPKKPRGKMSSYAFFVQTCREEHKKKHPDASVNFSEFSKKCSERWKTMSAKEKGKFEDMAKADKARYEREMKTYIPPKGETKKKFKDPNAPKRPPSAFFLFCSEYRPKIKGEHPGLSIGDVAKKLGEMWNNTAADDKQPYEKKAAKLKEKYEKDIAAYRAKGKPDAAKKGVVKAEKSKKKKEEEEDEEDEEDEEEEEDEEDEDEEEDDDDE
From the text: We measured association and disassociation rates using the Octet (FIG. 26C).

T1 sequence (P01375 77-233 limits assumed): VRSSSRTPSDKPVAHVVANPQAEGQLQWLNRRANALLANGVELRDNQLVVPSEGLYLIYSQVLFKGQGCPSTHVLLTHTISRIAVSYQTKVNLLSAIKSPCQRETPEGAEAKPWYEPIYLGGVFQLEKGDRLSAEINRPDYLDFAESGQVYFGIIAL

B1: R41A6 Fc fusion protein (A6+Fc) (Fc fusion)
chain: NVSPPRRARVTDATETTITISWEHSEDDCYSYIYYFQVDAVPANGQTPIQRTISGYETYYTITGLQPGTDYKIYLYTLNSAGFCPPYSKPVVIDAST
notes: Expressed in E. coli BL-21(DE3) from pET-20b with pelB signal; it calls A6 alone monomeric; also called pET-20b+TNF A6+Fc #39; 14FN3-Fc fusion; not shown: C-terminal hexahistidine tag of pET-20b
TNF-α [1]
  Kd: 24.8 nM and 14.9 nM and 11.7 nM
  koff: 0.000226 s⁻¹ and 0.00022 s⁻¹ and 0.000229 s⁻¹
  kon: 9120 M⁻¹ s⁻¹ and 14900 M⁻¹ s⁻¹ and 19500 M⁻¹ s⁻¹

B2: TNF-α binder R41A6 (designed binder)
chain: B1 chain
notes: 14FN3 scaffold variant from the tyrosine WTM library; Octet); The NcoI primer adds ATGGAA before the NVSPP start in the pET-20b construct; also called TNF A6; not shown: C-terminal hexahistidine tag from pET-20b (Octet), or c-myc + 6xHis tags from the phagemid (soluble ELISA)
TNF-α [2]
  koff: 0.000438 s⁻¹ and 0.000267 s⁻¹

B3: P2F3 anti-HMGB1 (designed binder)
chain: NVSPPRRARVTDATETTITIRWGVPHSFQVDAVPANGQTPIQRTIKRGVRSYTITGLQPGTDYKIYLYTLNDNARSSPVVIDAST
notes: soluble 6xHis-tagged protein in Octet; not shown: C-terminal tags from the phagemid incl; 6xHis (soluble form)
HMGB1
  Kd: 277 nM
  kon: 97900 M⁻¹ s⁻¹

Reference: patent US20170253645A1 (published 2017)
